Residue numbers refer to the chain shown, from its start. One block for each binder: values may come before it.
Experiments:
[1] = biological target: T1, Human CD137 on Jurkat cells (human, UniProt Q07011 24-255); experiment: cell-based or functional assay; design: IC90; Jurkat-CD137 NFkB-luciferase, HT1080-FAP co-culture / EC90; Jurkat-CD137 NFkB-luciferase, HT1080-FAP co-culture: unit not given beside the values
[2] = biological target: T1, Human CD137 on Jurkat cells; experiment: cell-based or functional assay

- EC90; Jurkat-CD137 NFkB-luciferase, HT1080-FAP co-culture [1]: 2.55
- IC90; Jurkat-CD137 NFkB-luciferase, HT1080-FAP co-culture [1]: 492
- Total AUC; Jurkat-CD137 NFkB-luciferase, HT1080-FAP co-culture [1]: 2.5e+06
- Average EC50; Jurkat-CD137 NFkB-luciferase, HT1080-FAP co-culture [2]: 0.248 nM
- Average EC90; Jurkat-CD137 NFkB-luciferase, HT1080-FAP co-culture [2]: 1.51 nM
- Average IC50; Jurkat-CD137 NFkB-luciferase, HT1080-FAP co-culture [2]: 747 nM
- Average IC90; Jurkat-CD137 NFkB-luciferase, HT1080-FAP co-culture [2]: 79.2 nM
- Ratio IC50/EC50; Jurkat-CD137 NFkB-luciferase, HT1080-FAP co-culture [2]: 3010
- Ratio IC90/EC90; Jurkat-CD137 NFkB-luciferase, HT1080-FAP co-culture [2]: 52.3
B1: CD137 #4 (B21.V25) + FAP #3 (A11 VK7/VH1) (bispecific antibody, human IgG1, kappa, L234A L235A)
heavy: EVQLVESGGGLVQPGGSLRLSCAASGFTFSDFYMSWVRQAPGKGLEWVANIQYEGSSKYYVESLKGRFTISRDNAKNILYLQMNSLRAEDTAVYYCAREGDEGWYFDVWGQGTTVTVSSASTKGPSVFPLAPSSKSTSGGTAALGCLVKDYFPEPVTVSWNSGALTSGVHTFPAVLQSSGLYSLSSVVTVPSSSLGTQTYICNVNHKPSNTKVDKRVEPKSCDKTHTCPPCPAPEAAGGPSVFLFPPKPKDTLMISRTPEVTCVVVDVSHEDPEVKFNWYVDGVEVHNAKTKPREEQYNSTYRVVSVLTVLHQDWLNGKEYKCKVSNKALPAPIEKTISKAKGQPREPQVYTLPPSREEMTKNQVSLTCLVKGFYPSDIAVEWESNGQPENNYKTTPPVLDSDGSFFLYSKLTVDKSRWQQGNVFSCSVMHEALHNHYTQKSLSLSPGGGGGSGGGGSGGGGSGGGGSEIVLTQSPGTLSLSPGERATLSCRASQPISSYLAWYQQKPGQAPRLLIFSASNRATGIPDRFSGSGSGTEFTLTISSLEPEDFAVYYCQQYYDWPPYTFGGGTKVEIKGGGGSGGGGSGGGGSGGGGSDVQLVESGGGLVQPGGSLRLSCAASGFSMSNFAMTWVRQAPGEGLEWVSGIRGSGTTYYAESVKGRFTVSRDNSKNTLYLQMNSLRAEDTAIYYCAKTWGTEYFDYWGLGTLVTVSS
light: DIQMTQSPSSLSASVGDRVTITCRASQSISTAVAWYQQKPGKAPKLLIYAASYLYSGVPSRFSGSGSGTDFTLTISSLQPEDFAVYYCQQHYSNPWTFGQGTKLEIKRTVAAPSVFIFPPSDEQLKSGTASVVCLLNNFYPREAKVQWKVDNALQSGNSQESVTEQDSKDSTYSLSSTLTLSKADYEKHKVYACEVTHQGLSSPVTKSFNRGEC

- EC90; Jurkat-CD137 NFkB-luciferase, HT1080-FAP co-culture [1]: 0.55
- IC90; Jurkat-CD137 NFkB-luciferase, HT1080-FAP co-culture [1]: 53.6
- Total AUC; Jurkat-CD137 NFkB-luciferase, HT1080-FAP co-culture [1]: 4e+06
- Average EC50; Jurkat-CD137 NFkB-luciferase, HT1080-FAP co-culture [2]: 0.153 nM
- Average EC90; Jurkat-CD137 NFkB-luciferase, HT1080-FAP co-culture [2]: 1.07 nM
- Average IC50; Jurkat-CD137 NFkB-luciferase, HT1080-FAP co-culture [2]: 314 nM
- Average IC90; Jurkat-CD137 NFkB-luciferase, HT1080-FAP co-culture [2]: 105 nM
- Ratio IC50/EC50; Jurkat-CD137 NFkB-luciferase, HT1080-FAP co-culture [2]: 2060
- Ratio IC90/EC90; Jurkat-CD137 NFkB-luciferase, HT1080-FAP co-culture [2]: 98.1
B2: CD137 #6 (B21.V37) + FAP #2 (A11 VK3/VH3) (bispecific antibody, human IgG1, kappa, L234A L235A)
heavy: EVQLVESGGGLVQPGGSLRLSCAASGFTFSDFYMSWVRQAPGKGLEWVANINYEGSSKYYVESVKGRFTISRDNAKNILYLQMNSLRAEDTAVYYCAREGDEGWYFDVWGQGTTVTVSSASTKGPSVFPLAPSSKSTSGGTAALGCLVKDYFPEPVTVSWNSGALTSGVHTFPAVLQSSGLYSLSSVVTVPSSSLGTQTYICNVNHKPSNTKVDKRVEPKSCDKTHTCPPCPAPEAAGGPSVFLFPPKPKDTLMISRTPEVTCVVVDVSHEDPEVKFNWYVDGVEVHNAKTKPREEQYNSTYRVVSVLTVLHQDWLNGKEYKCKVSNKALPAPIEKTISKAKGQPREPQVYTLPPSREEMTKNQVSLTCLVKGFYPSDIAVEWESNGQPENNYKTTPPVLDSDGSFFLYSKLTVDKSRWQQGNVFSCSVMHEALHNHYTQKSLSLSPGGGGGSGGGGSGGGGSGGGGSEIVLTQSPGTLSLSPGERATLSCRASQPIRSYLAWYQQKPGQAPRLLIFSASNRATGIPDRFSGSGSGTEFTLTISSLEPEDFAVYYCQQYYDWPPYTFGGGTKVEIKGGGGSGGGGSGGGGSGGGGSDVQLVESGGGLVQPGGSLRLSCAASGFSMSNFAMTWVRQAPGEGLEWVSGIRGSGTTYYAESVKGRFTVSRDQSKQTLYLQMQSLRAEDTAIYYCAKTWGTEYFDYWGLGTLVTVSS
light: B1 light with V33L, L54R

- EC90; Jurkat-CD137 NFkB-luciferase, HT1080-FAP co-culture [1]: 0.78
- IC90; Jurkat-CD137 NFkB-luciferase, HT1080-FAP co-culture [1]: 62.8
- Total AUC; Jurkat-CD137 NFkB-luciferase, HT1080-FAP co-culture [1]: 2.9e+06
- Average EC50; Jurkat-CD137 NFkB-luciferase, HT1080-FAP co-culture [2]: 0.16 nM
- Average EC90; Jurkat-CD137 NFkB-luciferase, HT1080-FAP co-culture [2]: 0.883 nM
- Average IC50; Jurkat-CD137 NFkB-luciferase, HT1080-FAP co-culture [2]: 444 nM
- Average IC90; Jurkat-CD137 NFkB-luciferase, HT1080-FAP co-culture [2]: 86.7 nM
- Ratio IC50/EC50; Jurkat-CD137 NFkB-luciferase, HT1080-FAP co-culture [2]: 2780
- Ratio IC90/EC90; Jurkat-CD137 NFkB-luciferase, HT1080-FAP co-culture [2]: 98.1
B3: CD137 #5 (B21.V29) + FAP #2 (A11 VK3/VH3) (bispecific antibody, human IgG1, kappa, L234A L235A)
heavy: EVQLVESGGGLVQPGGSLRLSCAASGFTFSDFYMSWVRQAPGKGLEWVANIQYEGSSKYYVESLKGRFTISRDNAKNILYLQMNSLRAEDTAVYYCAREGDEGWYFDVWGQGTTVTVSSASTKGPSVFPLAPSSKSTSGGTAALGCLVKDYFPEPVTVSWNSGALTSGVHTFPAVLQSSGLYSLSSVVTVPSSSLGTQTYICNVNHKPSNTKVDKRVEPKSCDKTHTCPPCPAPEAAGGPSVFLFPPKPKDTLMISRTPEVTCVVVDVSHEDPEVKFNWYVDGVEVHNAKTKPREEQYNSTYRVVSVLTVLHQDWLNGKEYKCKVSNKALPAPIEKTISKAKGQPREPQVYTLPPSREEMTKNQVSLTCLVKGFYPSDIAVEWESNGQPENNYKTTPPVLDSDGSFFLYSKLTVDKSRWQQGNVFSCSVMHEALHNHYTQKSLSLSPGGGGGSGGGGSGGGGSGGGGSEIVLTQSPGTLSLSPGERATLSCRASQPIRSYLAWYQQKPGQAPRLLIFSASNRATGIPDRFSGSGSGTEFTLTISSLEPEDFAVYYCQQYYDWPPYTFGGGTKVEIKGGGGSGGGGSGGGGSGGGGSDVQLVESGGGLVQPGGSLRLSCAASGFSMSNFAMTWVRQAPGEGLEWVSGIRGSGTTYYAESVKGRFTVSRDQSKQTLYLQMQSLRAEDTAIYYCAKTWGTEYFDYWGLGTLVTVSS
light: B1 light with V33L, L54R

- EC90; Jurkat-CD137 NFkB-luciferase, HT1080-FAP co-culture [1]: 1.38
- IC90; Jurkat-CD137 NFkB-luciferase, HT1080-FAP co-culture [1]: 77.8
- Total AUC; Jurkat-CD137 NFkB-luciferase, HT1080-FAP co-culture [1]: 3e+06
- Average EC50; Jurkat-CD137 NFkB-luciferase, HT1080-FAP co-culture [2]: 0.175 nM
- Average EC90; Jurkat-CD137 NFkB-luciferase, HT1080-FAP co-culture [2]: 1.25 nM
- Average IC50; Jurkat-CD137 NFkB-luciferase, HT1080-FAP co-culture [2]: 559 nM
- Average IC90; Jurkat-CD137 NFkB-luciferase, HT1080-FAP co-culture [2]: 98.6 nM
- Ratio IC50/EC50; Jurkat-CD137 NFkB-luciferase, HT1080-FAP co-culture [2]: 3190
- Ratio IC90/EC90; Jurkat-CD137 NFkB-luciferase, HT1080-FAP co-culture [2]: 79
B4: CD137 #4 (B21.V25) + FAP #5 (C3 VK1/VH4) (bispecific antibody, human IgG1, kappa, L234A L235A)
heavy: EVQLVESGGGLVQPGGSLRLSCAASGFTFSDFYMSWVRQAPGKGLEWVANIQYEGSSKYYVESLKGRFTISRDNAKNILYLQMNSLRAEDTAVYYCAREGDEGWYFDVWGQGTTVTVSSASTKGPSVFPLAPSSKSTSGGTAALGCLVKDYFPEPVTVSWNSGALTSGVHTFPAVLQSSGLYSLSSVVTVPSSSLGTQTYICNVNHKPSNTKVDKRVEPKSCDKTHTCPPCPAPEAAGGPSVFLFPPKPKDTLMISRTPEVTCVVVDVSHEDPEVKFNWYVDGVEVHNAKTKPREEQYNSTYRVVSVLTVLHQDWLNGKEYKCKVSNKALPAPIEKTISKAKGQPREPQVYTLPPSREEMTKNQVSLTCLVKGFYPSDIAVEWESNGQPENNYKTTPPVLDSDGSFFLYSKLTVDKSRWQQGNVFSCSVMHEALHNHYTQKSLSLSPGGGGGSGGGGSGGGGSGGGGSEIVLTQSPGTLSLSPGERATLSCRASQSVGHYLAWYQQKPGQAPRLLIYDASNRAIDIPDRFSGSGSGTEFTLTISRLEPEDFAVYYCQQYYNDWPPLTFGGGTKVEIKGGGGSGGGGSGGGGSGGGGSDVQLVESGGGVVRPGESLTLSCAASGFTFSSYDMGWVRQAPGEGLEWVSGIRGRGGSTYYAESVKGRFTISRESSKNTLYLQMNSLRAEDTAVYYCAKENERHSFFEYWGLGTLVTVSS
light: B1 light

- EC90; Jurkat-CD137 NFkB-luciferase, HT1080-FAP co-culture [1]: 2.34
- IC90; Jurkat-CD137 NFkB-luciferase, HT1080-FAP co-culture [1]: 258
- Total AUC; Jurkat-CD137 NFkB-luciferase, HT1080-FAP co-culture [1]: 3.5e+06
- Average EC50; Jurkat-CD137 NFkB-luciferase, HT1080-FAP co-culture [2]: 0.141 nM
- Average EC90; Jurkat-CD137 NFkB-luciferase, HT1080-FAP co-culture [2]: 1.43 nM
- Average IC50; Jurkat-CD137 NFkB-luciferase, HT1080-FAP co-culture [2]: 756 nM
- Average IC90; Jurkat-CD137 NFkB-luciferase, HT1080-FAP co-culture [2]: 165 nM
- Ratio IC50/EC50; Jurkat-CD137 NFkB-luciferase, HT1080-FAP co-culture [2]: 5370
- Ratio IC90/EC90; Jurkat-CD137 NFkB-luciferase, HT1080-FAP co-culture [2]: 115
B5: CD137 #6 (B21.V37) + FAP #3 (A11 VK7/VH1) (bispecific antibody, human IgG1, kappa, L234A L235A)
heavy: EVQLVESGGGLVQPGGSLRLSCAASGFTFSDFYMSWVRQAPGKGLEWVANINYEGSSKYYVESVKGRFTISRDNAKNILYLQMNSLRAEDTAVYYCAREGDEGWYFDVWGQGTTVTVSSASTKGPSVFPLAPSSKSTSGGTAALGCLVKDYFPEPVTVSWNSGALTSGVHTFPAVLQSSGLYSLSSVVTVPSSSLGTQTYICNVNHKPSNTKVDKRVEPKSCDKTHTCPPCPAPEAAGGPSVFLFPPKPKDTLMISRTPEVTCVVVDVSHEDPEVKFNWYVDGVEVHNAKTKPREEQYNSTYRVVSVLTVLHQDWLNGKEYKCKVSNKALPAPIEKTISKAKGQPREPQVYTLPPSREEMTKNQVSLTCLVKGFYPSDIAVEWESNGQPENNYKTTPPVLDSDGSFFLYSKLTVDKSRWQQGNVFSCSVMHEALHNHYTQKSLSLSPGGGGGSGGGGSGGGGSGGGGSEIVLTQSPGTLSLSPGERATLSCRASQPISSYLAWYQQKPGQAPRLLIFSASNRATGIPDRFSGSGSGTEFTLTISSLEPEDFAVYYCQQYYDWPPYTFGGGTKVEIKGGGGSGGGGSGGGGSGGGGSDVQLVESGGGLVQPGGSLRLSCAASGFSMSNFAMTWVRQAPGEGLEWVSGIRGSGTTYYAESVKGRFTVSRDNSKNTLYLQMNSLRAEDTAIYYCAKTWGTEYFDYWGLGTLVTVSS
light: B1 light with V33L, L54R

- EC90; Jurkat-CD137 NFkB-luciferase, HT1080-FAP co-culture [1]: 0.52
- IC90; Jurkat-CD137 NFkB-luciferase, HT1080-FAP co-culture [1]: 51.9
- Total AUC; Jurkat-CD137 NFkB-luciferase, HT1080-FAP co-culture [1]: 2.9e+06
- Average EC50; Jurkat-CD137 NFkB-luciferase, HT1080-FAP co-culture [2]: 0.09 nM
- Average EC90; Jurkat-CD137 NFkB-luciferase, HT1080-FAP co-culture [2]: 0.671 nM
- Average IC50; Jurkat-CD137 NFkB-luciferase, HT1080-FAP co-culture [2]: 347 nM
- Average IC90; Jurkat-CD137 NFkB-luciferase, HT1080-FAP co-culture [2]: 52.8 nM
- Ratio IC50/EC50; Jurkat-CD137 NFkB-luciferase, HT1080-FAP co-culture [2]: 3840
- Ratio IC90/EC90; Jurkat-CD137 NFkB-luciferase, HT1080-FAP co-culture [2]: 78.6
B6: CD137 #5 (B21.V29) + FAP #3 (A11 VK7/VH1) (bispecific antibody, human IgG1, kappa, L234A L235A)
heavy: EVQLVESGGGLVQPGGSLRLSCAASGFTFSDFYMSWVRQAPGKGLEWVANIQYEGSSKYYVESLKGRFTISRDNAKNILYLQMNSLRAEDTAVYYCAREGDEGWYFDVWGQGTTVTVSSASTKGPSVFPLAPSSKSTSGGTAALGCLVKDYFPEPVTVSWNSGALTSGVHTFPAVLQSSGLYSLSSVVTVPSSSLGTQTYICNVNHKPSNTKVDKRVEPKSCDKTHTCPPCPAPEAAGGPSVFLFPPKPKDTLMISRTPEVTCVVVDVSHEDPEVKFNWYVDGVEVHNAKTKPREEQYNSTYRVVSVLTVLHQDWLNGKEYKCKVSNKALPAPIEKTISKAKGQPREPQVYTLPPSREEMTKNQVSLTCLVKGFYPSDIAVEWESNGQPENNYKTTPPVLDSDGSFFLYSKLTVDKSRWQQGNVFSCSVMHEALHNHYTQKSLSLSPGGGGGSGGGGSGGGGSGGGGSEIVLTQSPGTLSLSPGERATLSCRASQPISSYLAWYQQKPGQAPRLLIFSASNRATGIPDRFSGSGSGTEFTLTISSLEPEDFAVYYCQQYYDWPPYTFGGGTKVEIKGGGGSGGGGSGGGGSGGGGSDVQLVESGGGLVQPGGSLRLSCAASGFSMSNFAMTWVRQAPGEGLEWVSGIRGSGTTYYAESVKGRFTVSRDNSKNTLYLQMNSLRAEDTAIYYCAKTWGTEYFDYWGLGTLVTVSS
light: B1 light with V33L, L54R

- EC90; Jurkat-CD137 NFkB-luciferase, HT1080-FAP co-culture [1]: 0.47
- IC90; Jurkat-CD137 NFkB-luciferase, HT1080-FAP co-culture [1]: 13.8
- Total AUC; Jurkat-CD137 NFkB-luciferase, HT1080-FAP co-culture [1]: 3.6e+06
- Average EC50; Jurkat-CD137 NFkB-luciferase, HT1080-FAP co-culture [2]: 0.054 nM
- Average EC90; Jurkat-CD137 NFkB-luciferase, HT1080-FAP co-culture [2]: 0.315 nM
- Average IC50; Jurkat-CD137 NFkB-luciferase, HT1080-FAP co-culture [2]: 191 nM
- Average IC90; Jurkat-CD137 NFkB-luciferase, HT1080-FAP co-culture [2]: 13.8 nM
- Ratio IC50/EC50; Jurkat-CD137 NFkB-luciferase, HT1080-FAP co-culture [2]: 3520
- Ratio IC90/EC90; Jurkat-CD137 NFkB-luciferase, HT1080-FAP co-culture [2]: 43.8
B7: CD137 #6 (B21.V37) + FAP #5 (C3 VK1/VH4) (bispecific antibody, human IgG1, kappa, L234A L235A)
heavy: not shown
light: B1 light with V33L, L54R

- EC90; Jurkat-CD137 NFkB-luciferase, HT1080-FAP co-culture [1]: 0.8
- IC90; Jurkat-CD137 NFkB-luciferase, HT1080-FAP co-culture [1]: 35.7
- Total AUC; Jurkat-CD137 NFkB-luciferase, HT1080-FAP co-culture [1]: 3.2e+06
- Average EC50; Jurkat-CD137 NFkB-luciferase, HT1080-FAP co-culture [2]: 0.115 nM
- Average EC90; Jurkat-CD137 NFkB-luciferase, HT1080-FAP co-culture [2]: 0.644 nM
- Average IC50; Jurkat-CD137 NFkB-luciferase, HT1080-FAP co-culture [2]: 319 nM
- Average IC90; Jurkat-CD137 NFkB-luciferase, HT1080-FAP co-culture [2]: 69.2 nM
- Ratio IC50/EC50; Jurkat-CD137 NFkB-luciferase, HT1080-FAP co-culture [2]: 2790
- Ratio IC90/EC90; Jurkat-CD137 NFkB-luciferase, HT1080-FAP co-culture [2]: 107
B8: CD137 #5 (B21.V29) + FAP #5 (C3 VK1/VH4) (bispecific antibody, human IgG1, kappa, L234A L235A)
heavy: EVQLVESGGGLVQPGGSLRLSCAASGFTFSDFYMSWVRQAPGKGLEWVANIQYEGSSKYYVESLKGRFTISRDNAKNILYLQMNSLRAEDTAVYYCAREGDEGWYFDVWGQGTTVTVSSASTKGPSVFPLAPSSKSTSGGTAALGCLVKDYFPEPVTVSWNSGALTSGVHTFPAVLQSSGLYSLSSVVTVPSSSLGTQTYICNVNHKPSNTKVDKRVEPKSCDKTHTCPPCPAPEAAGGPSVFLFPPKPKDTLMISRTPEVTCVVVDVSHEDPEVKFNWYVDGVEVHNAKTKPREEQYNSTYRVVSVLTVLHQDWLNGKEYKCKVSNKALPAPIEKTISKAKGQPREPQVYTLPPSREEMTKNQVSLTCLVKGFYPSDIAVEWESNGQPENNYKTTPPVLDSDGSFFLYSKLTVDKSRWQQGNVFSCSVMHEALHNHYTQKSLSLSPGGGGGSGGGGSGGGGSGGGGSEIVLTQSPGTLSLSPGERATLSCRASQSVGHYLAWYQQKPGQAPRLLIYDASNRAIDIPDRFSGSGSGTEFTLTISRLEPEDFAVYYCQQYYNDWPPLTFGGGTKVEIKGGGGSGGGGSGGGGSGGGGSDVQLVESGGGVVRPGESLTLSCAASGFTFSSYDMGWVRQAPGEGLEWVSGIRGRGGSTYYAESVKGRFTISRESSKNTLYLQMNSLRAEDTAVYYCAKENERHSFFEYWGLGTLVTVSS
light: B1 light with V33L, L54R

Source: patent US20250136720A1 (Boehringer Ingelheim, published 2025)
